The values below come from paper PMC9798103.

As usually defined, the Kd is a measure of binding affinity in units of concentration. The low end stands for tighter binding, the high end for weaker binding.

This assay concerns the target F-actin (polymerised from Ca2+-ATP G-actin of rabbit skeletal muscle) (rabbit) (UniProt P68135). The assay can be described thus: co-sedimentation.

Substance “N-terminal half of RHGF-1 without the PDZ domain (RHGF-1-N-ΔPDZ) (domain or fragment)” displayed a Kd of 14 µM.
